Source: patent US20260209386A1 (MYTHIC THERAPEUTICS, published 2026)

B1: MYT6165 (antibody, V domains shown)
VH: QVQLVQSGPEVKKPGASVKVSCKASGYTFTDYAVHWVRQAPGKRLEWIGHISTYNDYTYNNQDFKGRVTMTRDTSASTAYMELSRLRSEDTAVYYCARGNSYFYALDYWGQGTSVTVSS
VL: EIVLTQSPATLSLSPGERATLSCRASESVDSYGKSFMHWYQQKPGQAPRLLIYRASNLESGIPARFSGSGSGTDFTLTISSLEPEDFAVYYCQQSNEDPWTFGGGTKLEIK
notes: IgG
B2: MYT6184 (antibody, V domains shown)
VH: QVQLVQSGPEVKKPGASVKVSCKASGYTFTDYAVHWVRQAPGKRLEWIGVISTYNDYTYNNQDFKGRVTMTRDTSASTAYMELSRLRSEDTAVYYCARHNSYFYALDYWGQGTSVTVSS
VL: EIVLTQSPATLSLSPGERATLSCRASESVDSYGKSFMHWYQQKPGQAPRLLIYRASNLESGIPARFSGSGSGTDFTLTISSLEPEDFAVYYCQQSNEDPWTFGGGTKLEIK
notes: IgG
B3: MYT6186 (antibody, V domains shown)
VH: QVQLVQSGPEVKKPGASVKVSCKASGYTFTDYAVHWVRQAPGKRLEWIGVISTYNDYTYNNQDFKGRVTMTRDTSASTAYMELSRLRSEDTAVYYCARGNHYFYALDYWGQGTSVTVSS
VL: EIVLTQSPATLSLSPGERATLSCRASESVDSYGKSFMHWYQQKPGQAPRLLIYRASNLESGIPARFSGSGSGTDFTLTISSLEPEDFAVYYCQQSNEDPWTFGGGTKLEIK
notes: IgG
B4: MYT6190 (antibody, V domains shown)
VH: QVQLVQSGPEVKKPGASVKVSCKASGYTFTDYAVHWVRQAPGKRLEWIGVISTYNDYTYNNQDFKGRVTMTRDTSASTAYMELSRLRSEDTAVYYCARGNSYFYHLDYWGQGTSVTVSS
VL: EIVLTQSPATLSLSPGERATLSCRASESVDSYGKSFMHWYQQKPGQAPRLLIYRASNLESGIPARFSGSGSGTDFTLTISSLEPEDFAVYYCQQSNEDPWTFGGGTKLEIK
notes: IgG
B5: MYT6206 (antibody, V domains shown)
VH: QVQLVQSGPEVKKPGASVKVSCKASGYTFTDYAVHWVRQAPGKRLEWIGVISTYNDYTYNNQDFKGRVTMTRDTSASTAYMELSRLRSEDTAVYYCARGNSYFYALDYWGQGTSVTVSS
VL: EIVLTQSPATLSLSPGERATLSCRASESVDSYGKSHMHWYQQKPGQAPRLLIYRASNLESGIPARFSGSGSGTDFTLTISSLEPEDFAVYYCQQSNEDPWTFGGGTKLEIK
notes: IgG
B6: MYT6209 (antibody, V domains shown)
VH: QVQLVQSGPEVKKPGASVKVSCKASGYTFTDYAVHWVRQAPGKRLEWIGVISTYNDYTYNNQDFKGRVTMTRDTSASTAYMELSRLRSEDTAVYYCARGNSYFYALDYWGQGTSVTVSS
VL: EIVLTQSPATLSLSPGERATLSCRASESVDSYGKSFMHWYQQKPGQAPRLLIYHASNLESGIPARFSGSGSGTDFTLTISSLEPEDFAVYYCQQSNEDPWTFGGGTKLEIK
notes: IgG
B7: MYT6210 (antibody, V domains shown)
VH: QVQLVQSGPEVKKPGASVKVSCKASGYTFTDYAVHWVRQAPGKRLEWIGVISTYNDYTYNNQDFKGRVTMTRDTSASTAYMELSRLRSEDTAVYYCARGNSYFYALDYWGQGTSVTVSS
VL: EIVLTQSPATLSLSPGERATLSCRASESVDSYGKSFMHWYQQKPGQAPRLLIYRHSNLESGIPARFSGSGSGTDFTLTISSLEPEDFAVYYCQQSNEDPWTFGGGTKLEIK
notes: IgG
B8: MYT6218 (antibody, V domains shown)
VH: QVQLVQSGPEVKKPGASVKVSCKASGYTFTDYAVHWVRQAPGKRLEWIGVISTYNDYTYNNQDFKGRVTMTRDTSASTAYMELSRLRSEDTAVYYCARGNSYFYALDYWGQGTSVTVSS
VL: EIVLTQSPATLSLSPGERATLSCRASESVDSYGKSFMHWYQQKPGQAPRLLIYRASNLESGIPARFSGSGSGTDFTLTISSLEPEDFAVYYCQQHNEDPWTFGGGTKLEIK
notes: IgG
B9: MYT6221 (antibody, V domains shown)
VH: QVQLVQSGPEVKKPGASVKVSCKASGYTFTDYAVHWVRQAPGKRLEWIGVISTYNDYTYNNQDFKGRVTMTRDTSASTAYMELSRLRSEDTAVYYCARGNSYFYALDYWGQGTSVTVSS
VL: EIVLTQSPATLSLSPGERATLSCRASESVDSYGKSFMHWYQQKPGQAPRLLIYRASNLESGIPARFSGSGSGTDFTLTISSLEPEDFAVYYCQQSNEHPWTFGGGTKLEIK
notes: IgG
B10: MYT6231 (antibody, V domains shown)
VH: QVQLVESGGGVVQPGRSLRLSCAASGFTFSSHGMHWVRQAPGKGLEWVAVIWDDGSNKYYVDSVKGRFTISRDNSKNTLYLQMNSLRAEDTAVYYCARDDYYGSGSFNSYYGTDVWGQGTTVTVSS
VL: EIVLTQSPATLSLSPGERATLSCRASQSVSIYLAWYQQKPGQAPRLLIYDASNRATGIPARFSGSGSGTDFTLTISSLEPEDFAVYYCQQRSNWPPFTFGPGTKVDIK
notes: IgG
B11: MYT6232 (antibody, V domains shown)
VH: QVQLVESGGGVVQPGRSLRLSCAASGFTFSSYHMHWVRQAPGKGLEWVAVIWDDGSNKYYVDSVKGRFTISRDNSKNTLYLQMNSLRAEDTAVYYCARDDYYGSGSFNSYYGTDVWGQGTTVTVSS
VL: EIVLTQSPATLSLSPGERATLSCRASQSVSIYLAWYQQKPGQAPRLLIYDASNRATGIPARFSGSGSGTDFTLTISSLEPEDFAVYYCQQRSNWPPFTFGPGTKVDIK
notes: IgG
B12: MYT6244 (antibody, V domains shown)
VH: QVQLVESGGGVVQPGRSLRLSCAASGFTFSSYGMHWVRQAPGKGLEWVAVIWDDGSNKHYVDSVKGRFTISRDNSKNTLYLQMNSLRAEDTAVYYCARDDYYGSGSFNSYYGTDVWGQGTTVTVSS
VL: EIVLTQSPATLSLSPGERATLSCRASQSVSIYLAWYQQKPGQAPRLLIYDASNRATGIPARFSGSGSGTDFTLTISSLEPEDFAVYYCQQRSNWPPFTFGPGTKVDIK
notes: IgG
B13: MYT6253 (antibody, V domains shown)
VH: QVQLVESGGGVVQPGRSLRLSCAASGFTFSSYGMHWVRQAPGKGLEWVAVIWDDGSNKYYVDSVKGRFTISRDNSKNTLYLQMNSLRAEDTAVYYCAHDDYYGSGSFNSYYGTDVWGQGTTVTVSS
VL: EIVLTQSPATLSLSPGERATLSCRASQSVSIYLAWYQQKPGQAPRLLIYDASNRATGIPARFSGSGSGTDFTLTISSLEPEDFAVYYCQQRSNWPPFTFGPGTKVDIK
notes: IgG
B14: MYT6254 (antibody, V domains shown)
VH: QVQLVESGGGVVQPGRSLRLSCAASGFTFSSYGMHWVRQAPGKGLEWVAVIWDDGSNKYYVDSVKGRFTISRDNSKNTLYLQMNSLRAEDTAVYYCARHDYYGSGSFNSYYGTDVWGQGTTVTVSS
VL: EIVLTQSPATLSLSPGERATLSCRASQSVSIYLAWYQQKPGQAPRLLIYDASNRATGIPARFSGSGSGTDFTLTISSLEPEDFAVYYCQQRSNWPPFTFGPGTKVDIK
notes: IgG
B15: MYT6255 (antibody, V domains shown)
VH: QVQLVESGGGVVQPGRSLRLSCAASGFTFSSYGMHWVRQAPGKGLEWVAVIWDDGSNKYYVDSVKGRFTISRDNSKNTLYLQMNSLRAEDTAVYYCARDHYYGSGSFNSYYGTDVWGQGTTVTVSS
VL: EIVLTQSPATLSLSPGERATLSCRASQSVSIYLAWYQQKPGQAPRLLIYDASNRATGIPARFSGSGSGTDFTLTISSLEPEDFAVYYCQQRSNWPPFTFGPGTKVDIK
notes: IgG
B16: MYT6256 (antibody, V domains shown)
VH: QVQLVESGGGVVQPGRSLRLSCAASGFTFSSYGMHWVRQAPGKGLEWVAVIWDDGSNKYYVDSVKGRFTISRDNSKNTLYLQMNSLRAEDTAVYYCARDDHYGSGSFNSYYGTDVWGQGTTVTVSS
VL: EIVLTQSPATLSLSPGERATLSCRASQSVSIYLAWYQQKPGQAPRLLIYDASNRATGIPARFSGSGSGTDFTLTISSLEPEDFAVYYCQQRSNWPPFTFGPGTKVDIK
notes: IgG
B17: MYT6267 (antibody, V domains shown)
VH: QVQLVESGGGVVQPGRSLRLSCAASGFTFSSYGMHWVRQAPGKGLEWVAVIWDDGSNKYYVDSVKGRFTISRDNSKNTLYLQMNSLRAEDTAVYYCARDDYYGSGSFNSYYHTDVWGQGTTVTVSS
VL: EIVLTQSPATLSLSPGERATLSCRASQSVSIYLAWYQQKPGQAPRLLIYDASNRATGIPARFSGSGSGTDFTLTISSLEPEDFAVYYCQQRSNWPPFTFGPGTKVDIK
notes: IgG
B18: MYT6268 (antibody, V domains shown)
VH: QVQLVESGGGVVQPGRSLRLSCAASGFTFSSYGMHWVRQAPGKGLEWVAVIWDDGSNKYYVDSVKGRFTISRDNSKNTLYLQMNSLRAEDTAVYYCARDDYYGSGSFNSYYGHDVWGQGTTVTVSS
VL: EIVLTQSPATLSLSPGERATLSCRASQSVSIYLAWYQQKPGQAPRLLIYDASNRATGIPARFSGSGSGTDFTLTISSLEPEDFAVYYCQQRSNWPPFTFGPGTKVDIK
notes: IgG

These binders were tested against T1, Human PTK7/CCK4 Protein, His Tag, Acro Biosystems PT7-H52H3 (human, UniProt Q13308 31-704) (assay: BLI, antibody on anti-human Fc sensor).
T1 construct: bought protein; also called Human PTK7 Protein, His Tag, Acro Biosystems; not shown: His tag
T1 sequence: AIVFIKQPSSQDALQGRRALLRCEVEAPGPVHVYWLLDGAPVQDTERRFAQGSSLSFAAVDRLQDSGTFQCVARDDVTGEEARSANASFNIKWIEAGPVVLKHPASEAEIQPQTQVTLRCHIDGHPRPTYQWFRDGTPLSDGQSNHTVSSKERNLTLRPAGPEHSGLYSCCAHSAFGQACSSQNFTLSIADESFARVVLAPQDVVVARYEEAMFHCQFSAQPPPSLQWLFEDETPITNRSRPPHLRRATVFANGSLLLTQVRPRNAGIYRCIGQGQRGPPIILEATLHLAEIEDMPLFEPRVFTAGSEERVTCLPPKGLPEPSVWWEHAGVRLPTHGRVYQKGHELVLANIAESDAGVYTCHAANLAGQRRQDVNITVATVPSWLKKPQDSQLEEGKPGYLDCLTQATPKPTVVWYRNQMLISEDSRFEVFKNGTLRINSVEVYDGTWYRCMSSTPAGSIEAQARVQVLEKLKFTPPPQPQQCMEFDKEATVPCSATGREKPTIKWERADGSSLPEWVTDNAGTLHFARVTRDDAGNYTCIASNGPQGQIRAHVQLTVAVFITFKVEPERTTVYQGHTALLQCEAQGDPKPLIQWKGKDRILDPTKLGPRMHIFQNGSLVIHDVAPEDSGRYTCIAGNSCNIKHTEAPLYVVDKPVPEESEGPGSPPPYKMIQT
B1: no binding (tested: 50 nM PTK7). B2: no binding (tested: 50 nM PTK7). B3: no binding (tested: 50 nM PTK7). B4: no binding (tested: 50 nM PTK7). B5: no binding (tested: 50 nM PTK7). B6: no binding (tested: 50 nM PTK7). B7: no binding (tested: 50 nM PTK7). B8: no binding (tested: 50 nM PTK7). B9: no binding (tested: 50 nM PTK7). B10: no binding (tested: 50 nM PTK7). B11: no binding (tested: 50 nM PTK7). B12: no binding (tested: 50 nM PTK7). B13: no binding (tested: 50 nM PTK7). B14: no binding (tested: 50 nM PTK7). B15: no binding (tested: 50 nM PTK7). B16: no binding (tested: 50 nM PTK7). B17: no binding (tested: 50 nM PTK7). B18: no binding (tested: 50 nM PTK7).
